Target: human BTLA (wild-type) on cells (human) (UniProt Q7Z6A9)
Assay: cell-based or functional assay

Chain of human BTLA (wild-type) on cells (human) (Q7Z6A9 31-289): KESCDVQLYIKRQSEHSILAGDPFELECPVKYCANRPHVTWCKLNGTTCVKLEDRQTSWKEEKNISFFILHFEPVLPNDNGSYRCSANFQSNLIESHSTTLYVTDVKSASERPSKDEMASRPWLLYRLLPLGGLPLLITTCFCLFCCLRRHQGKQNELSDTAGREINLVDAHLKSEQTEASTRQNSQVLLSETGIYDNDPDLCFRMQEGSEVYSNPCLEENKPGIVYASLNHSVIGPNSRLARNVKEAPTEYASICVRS

With human CMV UL144-Fc (Fc fusion) the ERK1/2 phosphorylation, control JTAg cells activated with co-immobilized anti-CD3 and Fc protein was 50 to 70 % reduction, the ZAP70/Syk phosphorylation, JTAg cells with ectopic BTLA was 15 to 25% and the phosphorylation of ERK, Akt and cellular phosphotyrosines, BJAB cells activated with co-immobilized anti-IgM and titrated Fc protein was 50 % reduction.

From US20240247047A1
